# Tested on: CIZ1 N571ΔPLD2 (Mus musculus)
# Assay: EMSA
# Conditions: 10 mM Tris-HCl pH 7.5, 30 mM NaCl, 2.5 mM MgCl2, 0.2 mM DTT, 0.1% IGEPAL CA-630, 0.1 mg/ml yeast tRNA, 0.4 U RNaseOUT, 1% glycerol; 30 C 20 min; 0.7% agarose …
row,Substance,K half
1,Xist repeat E proximal,100 nM
2,Xist repeat A,100 nM
